# Measured values taken from US20210388105A1 (ELPISCIENCE SUZHOU BIOPHARMA, published 2021).
# Residue numbers refer to the chain shown, from its start.
# T1: human CD39 (protein; form not stated) (human, UniProt P49961 38-478, limits assumed)
# T1 construct: also called ENTPD1; ENTPDase 1
# T1 sequence: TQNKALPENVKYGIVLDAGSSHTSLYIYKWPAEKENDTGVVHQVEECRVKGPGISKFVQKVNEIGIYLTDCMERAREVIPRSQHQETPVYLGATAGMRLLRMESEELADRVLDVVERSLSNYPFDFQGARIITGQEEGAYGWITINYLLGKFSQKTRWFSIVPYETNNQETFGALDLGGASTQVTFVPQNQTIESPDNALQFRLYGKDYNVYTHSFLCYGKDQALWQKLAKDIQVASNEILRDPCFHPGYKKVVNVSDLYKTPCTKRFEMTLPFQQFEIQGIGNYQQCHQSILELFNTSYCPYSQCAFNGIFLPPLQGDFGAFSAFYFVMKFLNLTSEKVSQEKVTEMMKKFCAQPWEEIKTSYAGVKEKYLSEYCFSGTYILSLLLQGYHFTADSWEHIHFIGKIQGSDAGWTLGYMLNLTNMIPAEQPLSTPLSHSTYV
# T2: kw27 (Intracellular C-terminal EGFP fusion, left out of the letters)
# T2 construct: not shown: C-terminal EGFP (GFPSpark) reporter of vector pCMV3-GFPSpark and any linker to it
# T2 chain: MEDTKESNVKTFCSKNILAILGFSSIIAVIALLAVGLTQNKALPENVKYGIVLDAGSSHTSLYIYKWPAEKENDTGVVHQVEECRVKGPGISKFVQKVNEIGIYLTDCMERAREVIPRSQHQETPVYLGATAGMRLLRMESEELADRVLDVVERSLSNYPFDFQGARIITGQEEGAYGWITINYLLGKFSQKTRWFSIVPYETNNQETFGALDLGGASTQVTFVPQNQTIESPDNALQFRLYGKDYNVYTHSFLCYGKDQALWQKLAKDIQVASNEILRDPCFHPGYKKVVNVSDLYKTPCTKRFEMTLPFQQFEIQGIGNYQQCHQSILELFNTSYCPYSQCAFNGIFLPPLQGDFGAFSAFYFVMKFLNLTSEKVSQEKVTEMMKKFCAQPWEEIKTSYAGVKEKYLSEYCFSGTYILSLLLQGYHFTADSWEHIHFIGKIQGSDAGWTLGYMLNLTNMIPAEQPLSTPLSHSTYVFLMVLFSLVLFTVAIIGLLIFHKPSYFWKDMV
# T3: KW27-2 (human CD39 mutant, C-terminal EGFP) (human, UniProt P49961 1-510)
# T3 construct: expressed on HEK293F cells; not shown: C-terminal EGFP fusion (vector pCMV3-GFPSpark)
# T3 chain: T2 chain with V81S, E82A, R111A, V115A
# T4: KW27-16 (human CD39 mutant, C-terminal EGFP) (human, UniProt P49961 1-510)
# T4 construct: expressed on HEK293F cells; not shown: C-terminal EGFP fusion (vector pCMV3-GFPSpark)
# T4 chain: T2 chain with K5A, E100A, D107A
# B1: Antibody 9-8B (antibody, V domains shown)
# VH: QIQLVQSGPELKKPGETVKISCKASGYTFTHYGMNWVKQAPGKGLKWMGWINTYTGELTYADDFKGRFAFSLETSASTAYLQINNLKNEDTATYFCARRAYYRYDYVMDYWGQGTSVTVSS
# VL: DIVMTQSQKFMSTSVGDRVSVTCKASHNVGTNVAWYQQKPGQSPKALIYSASYRYSGVPGRFTGSGSGTDFTLTISNVQSEDLAEYFCHQYNNYPYTFGGGTKLEIK
# B2: hu23.H5L5 (antibody, V domains shown)
# VH: QVQLVQSGAEVKKPGASVKVSCKASGYNLKDTFLHWVRQAPGQGLEWMGRIDPANGNIKYDPKFQGRVTITADTSANTAYMELISLRSEDTAVYYCANSPYYYGSGYRIFDVWGQGTTVTVSS
# VL: QIVLTQSPATLSLSPGERATLSCSAFSSVNYMHWYQQKPGQAPRLLIYTTSNLASGIPTRFSGSGSGTSYTLTISSLEPEDFAVYYCQQRSTYPFTFGQGTKLEIK
# notes: humanized c23
# B3: Antibody T895 (antibody, V domains shown)
# VH: EVQLQQSGPELVKPGASVKMSCKASGYTFTDYNMHWVKQSHGRTLEWIGYIVPLNGGSTFNQKFKGRATLTVNTSSRTAYMELRSLTSEDSAAYYCARGGTRFAYWGQGTLVTVSA
# VL: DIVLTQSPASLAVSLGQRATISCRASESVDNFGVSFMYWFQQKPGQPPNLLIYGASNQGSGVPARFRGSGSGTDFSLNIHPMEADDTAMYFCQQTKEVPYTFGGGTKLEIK
# notes: also called 31895
# B4: c34 (antibody, V domains shown)
# VH: EIQVQQSGPELVKPGASVKVSCKASGYSFTDYNMYWVKQSHGKSLEWIGFIDPYNGYTSYNQKFKGKATLTIDKSSSTAFMHLNSLTSEDSAVYYCAIYGYDDAYYFDYWGQGTTLTVSS
# VL: QIVLTQSPAIMSASPGEKVTITCSATSSVSYMHWFRQKPGTSPKLWIYSTSNLASGVPARFSGSGSGTSYSLTISRMAAEDAATYYCQQRITYPFTFGSGTKLEIT
# notes: its making is not described; also called chimeric antibody c34
# B5: c35 (antibody, V domains shown)
# VH: EVRLQQSGAELVKPGASVKLSCTASGFNIEDTYVHWMKQRPEQGLEWIGRIDPAIDNSKYDPKFQGKATITAVSSSNTAYLQLSSLTSEDTAVYYCALYDGYNVYAMDYWGQGTSVTVSS
# VL: DIVMTQAAFSNPVTLGTSASISCRSSKNLLHSNGITYLYWYLQRPGQSPQLLIYRASTLASGVPNRFSGSESGTDFTLRISRVEAEDVGVYYCAQLLELPHTFGGGTKLEIK
# notes: its making is not described; also called chimeric antibody c35
# Columns and labels:
# [1] = target: T1, human CD39 (protein; form not stated); test: Octet (BLI), antibody on sensor, CD39 in solution
# Protocol: Briefly, the antibodies were coupled on sensors and then the sensors were dipped into CD39 gradients (start at 200 nM, with 2-fold dilution and totally 8 doses). Their binding responses were measured in real-time and results were fit globally.
# kw27 = target: T2, kw27; test: FACS on transfected HEK293F cells, relative binding = AlexaFluor647 / GFP
# Protocol: (§1) Briefly, the human CD39 mutants were generated by gene synthesis and then cloned into an expression vector pCMV3-GFPSpark. The vectors containing the validated mutated sequences were prepared and transfected into HEK293F cells. Three days post transfection, the cells were collected to testing EGFP for transgene expression. A range of dosages of antibodies (start from 100 nM, 3-folds dilution, 11 points) were tested on the 20 generated mutants and stained by AlexFluor647 labelled anti-hIgG by FACS. Antibody binding was descripted as relative binding which is derived from AlexFluor647 intensity divided by GFP intensity.
# [2] = target: T3, KW27-2 (human CD39 mutant, C-terminal …); test: as above
# Protocol: as §1
# [3] = target: T4, KW27-16 (human CD39 mutant, C-terminal …); test: as above
# Protocol: as §1
Binder,Kd [1],koff [1],kon [1],binding result (kw27),binding result [2],binding result [3]
B1,20.2 nM,0.00243 s⁻¹,120000 M⁻¹ s⁻¹,binds,binds,binds
B2,0.687 nM,9.36e-05 s⁻¹,136000 M⁻¹ s⁻¹,binds,binds,binds
B3,6.62 nM,0.00444 s⁻¹,671000 M⁻¹ s⁻¹,binds,binds,binds
B4,–,–,–,binds,binds,no binding
B5,–,–,–,binds,–,–
